Data on four substances can be found in paper PMC6114919.

For series [1], the system named is R182W p55 (human). The series is described as follows: EMSA. The settings on record: EMSA in triplicate as previously described (ref 22); buffer, salt, pH and temperature not given in the material. A general note: In EMSA bound probe runs differently from free probe, usually more slowly.
Series [2] deals with WT p55 (Pol gamma accessory subunit) (human). In words: EMSA. The settings on record: EMSA in triplicate as previously described (ref 22); buffer, salt, pH and temperature not given in the material.
Series [3] addresses Exonuclease-deficient (Exo-) p140 catalytic subunit of DNA polymerase gamma (POLG) (human) (UniProt P54098). In words: DNA polymerase activity titration (formation of active holoenzyme); holoenzymes preassembled on ice in EDB (50 mM Tris-HCl pH 7.5, 10% glycerol, 1 mM EDTA, 1 mM 2-ME, 100 mM KCl, 0.005% NP-40) with constant 2.5 nM p140 and 0-25 nM p55; activity on poly(rA)•oligo(dT)12-18 at 220 mM NaCl, 37°C, 9 min; apparent Kd from activity against the concentration of p55 dimer.

The target in series [4] is p55 (Homo sapiens) (UniProt Q9UHN1). The settings on record: cited from earlier work.

Chain of p55 (Q9UHN1 2-485): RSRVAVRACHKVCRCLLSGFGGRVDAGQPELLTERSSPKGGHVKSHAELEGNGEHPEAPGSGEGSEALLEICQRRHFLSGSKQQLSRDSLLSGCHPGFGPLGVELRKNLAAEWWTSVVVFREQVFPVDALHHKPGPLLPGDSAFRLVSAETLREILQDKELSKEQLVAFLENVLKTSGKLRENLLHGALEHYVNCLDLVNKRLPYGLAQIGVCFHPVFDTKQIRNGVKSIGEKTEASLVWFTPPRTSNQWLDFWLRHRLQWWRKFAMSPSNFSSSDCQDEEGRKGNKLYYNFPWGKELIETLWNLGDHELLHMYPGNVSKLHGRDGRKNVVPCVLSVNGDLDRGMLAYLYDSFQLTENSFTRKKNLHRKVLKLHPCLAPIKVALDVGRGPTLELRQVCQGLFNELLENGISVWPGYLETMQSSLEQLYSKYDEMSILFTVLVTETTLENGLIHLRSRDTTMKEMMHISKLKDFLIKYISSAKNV

Take “47-nucleotide double-stranded DNA oligomer”: the Kd in series [1] amounted to 84.2 nM; in series [2], 89.6 nM.
As to “R182W p55 accessory subunit of DNA polymerase gamma (POLG2 Chr17: 62492543G>A) (natural protein)”, the Kd in series [3] amounted to 0.11 nM.
Turning to “Wild-type p55 accessory subunit of DNA polymerase gamma (POLG2) (natural protein)”, the Kd in series [3] was found to be 0.35 nM.
For the substance p55 (from UniProt Q9UHN1), the Kd in series [4] is below 0.1 nM.
